Drawing on paper PMC12854727, this text covers Ki, response and percent of parent for 37 substances.

One test addresses human TMPRSS2 ectodomain harboring S441, the DS mutation, SUMO and the N249 glycan (self-activating; wildtype of Figure 4C) (human) (UniProt O15393). The experiment in a line: enzyme inhibition kinetics (peptidase assay, competitive inhibition fit); 5 nM TMPRSS2 with serial dilutions of Boc-QAR-AMC substrate in the presence of 215, 72 or 24 nM HKU1 RBD, 22 °C; TMPRSS2 incubated 2 minutes with the RBD before substrate.
Details: not given
Consider “HKU1 isolate N1 (genotype A) RBD, wildtype, without avi tag (from UniProt Q5MQD0 320-614) (domain or fragment)”, for which the inhibition constant (Ki) (in general, the dissociation constant of the complex between target and ligand, obtained from inhibition or displacement) came to 38 nM.

Another test has as its target HKU1 isolate N1 (genotype A) RBD, wildtype, biotinylated (avi tag) (UniProt Q5MQD0). In words: BLI. Conditions: 100 nM TMPRSS2; area under the binding response curve normalised to human WT TMPRSS2, not to the mouse parent; parent: est. 19; read off a plot.
Regarding “S441A House Mouse TMPRSS2 ectodomain (DS mutation, SUMO, N249 glycan) S412N”, the response amounted to 38 % WT.

Staying with this test, now noted: 100 nM TMPRSS2; area under the binding response curve normalised to human WT TMPRSS2, not to the mouse parent; read off a plot.
For the substance House Mouse TMPRSS2 ectodomain S441A, the response came to 19 % WT.

Still in this test, the particulars now being: 100 nM TMPRSS2; area under the binding response curve; Not activated: uncleaved S441A TMPRSS2; read off a plot.
Consider “human TMPRSS2 ectodomain harboring S441, the DS mutation, SUMO and the N249 glycan (self-activating; wildtype of Figure 4C) (from UniProt O15393) S441A”, for which the percent of parent amounted to 1.4 % WT.

The same test, now with this note: 100 nM TMPRSS2; area under the binding response curve; cleaved (activated by enterokinase); read off a plot.
For “human TMPRSS2 ectodomain harboring S441, the DS mutation, SUMO and the N249 glycan (self-activating; wildtype of Figure 4C) (from UniProt O15393) S441A”, the percent of parent was found to be 100 % WT.

The test is the same for the next values; noted with them: 100 nM TMPRSS2; area under the binding response curve; read off a plot.
For the substance “human TMPRSS2 ectodomain harboring S441, the DS mutation, SUMO and the N249 glycan (self-activating; wildtype of Figure 4C) (from UniProt O15393) A468P”, the percent of parent is 95 % WT. Consider “human TMPRSS2 ectodomain harboring S441, the DS mutation, SUMO and the N249 glycan (self-activating; wildtype of Figure 4C) (from UniProt O15393) L419M”, for which the percent of parent stood at 51 % WT.

In the case of “human TMPRSS2 ectodomain harboring S441, the DS mutation, SUMO and the N249 glycan (self-activating; wildtype of Figure 4C) (from UniProt O15393) R409K”, the percent of parent was determined as 81 % WT. Same read-out and setting: the figure for “human TMPRSS2 ectodomain harboring S441, the DS mutation, SUMO and the N249 glycan (self-activating; wildtype of Figure 4C) (from UniProt O15393) V415I” is 71 % WT; for “human TMPRSS2 ectodomain harboring S441, the DS mutation, SUMO and the N249 glycan (self-activating; wildtype of Figure 4C) (from UniProt O15393) R413V” it is 85 % WT; for “human TMPRSS2 ectodomain harboring S441, the DS mutation, SUMO and the N249 glycan (self-activating; wildtype of Figure 4C) (from UniProt O15393) D417N” it is 15 % WT. Same read-out and setting: the figure for “human TMPRSS2 ectodomain harboring S441, the DS mutation, SUMO and the N249 glycan (self-activating; wildtype of Figure 4C) (from UniProt O15393) Y414R” is 3.9 % WT; for “human TMPRSS2 ectodomain harboring S441, the DS mutation, SUMO and the N249 glycan (self-activating; wildtype of Figure 4C) (from UniProt O15393) S463F” it is 1.6 % WT; for “human TMPRSS2 ectodomain harboring S441, the DS mutation, SUMO and the N249 glycan (self-activating; wildtype of Figure 4C) (from UniProt O15393) R470K” it is 1.6 % WT.

Consider “human TMPRSS2 ectodomain harboring S441, the DS mutation, SUMO and the N249 glycan (self-activating; wildtype of Figure 4C) (from UniProt O15393) L419A”, for which the percent of parent was 4.1 % WT. For the substance “human TMPRSS2 ectodomain harboring S441, the DS mutation, SUMO and the N249 glycan (self-activating; wildtype of Figure 4C) (from UniProt O15393) R413K”, the percent of parent came out at 77 % WT.

Regarding “human TMPRSS2 ectodomain harboring S441, the DS mutation, SUMO and the N249 glycan (self-activating; wildtype of Figure 4C) (from UniProt O15393) S412N”, the percent of parent was 110 % WT. Still for that read-out and setting: the figure for “human TMPRSS2 ectodomain harboring S441, the DS mutation, SUMO and the N249 glycan (self-activating; wildtype of Figure 4C) (from UniProt O15393) T341S” is 85 % WT; for “human TMPRSS2 ectodomain harboring S441, the DS mutation, SUMO and the N249 glycan (self-activating; wildtype of Figure 4C) (from UniProt O15393) Y414S” it is 28 % WT. On to “human TMPRSS2 ectodomain harboring S441, the DS mutation, SUMO and the N249 glycan (self-activating; wildtype of Figure 4C) (from UniProt O15393) S412N; Y469L”, for which the percent of parent was determined as 81 % WT. As for “human TMPRSS2 ectodomain harboring S441, the DS mutation, SUMO and the N249 glycan (self-activating; wildtype of Figure 4C) (from UniProt O15393) S463T”, the percent of parent came to 2 % WT. As for “human TMPRSS2 ectodomain harboring S441, the DS mutation, SUMO and the N249 glycan (self-activating; wildtype of Figure 4C) (from UniProt O15393) K340D”, the percent of parent was found to be 57 % WT.

Take “human TMPRSS2 ectodomain harboring S441, the DS mutation, SUMO and the N249 glycan (self-activating; wildtype of Figure 4C) (from UniProt O15393) S463Y”: the percent of parent stood at 1.5 % WT. As for “human TMPRSS2 ectodomain harboring S441, the DS mutation, SUMO and the N249 glycan (self-activating; wildtype of Figure 4C) (from UniProt O15393) R409T”, the percent of parent was determined as 79 % WT. Regarding “human TMPRSS2 ectodomain harboring S441, the DS mutation, SUMO and the N249 glycan (self-activating; wildtype of Figure 4C) (from UniProt O15393) Y469L”, the percent of parent worked out at 130 % WT. Still for that read-out and setting: the figure for “human TMPRSS2 ectodomain harboring S441, the DS mutation, SUMO and the N249 glycan (self-activating; wildtype of Figure 4C) (from UniProt O15393) Y469N” is 10 % WT; for “human TMPRSS2 ectodomain harboring S441, the DS mutation, SUMO and the N249 glycan (self-activating; wildtype of Figure 4C) (from UniProt O15393) Y414L” it is 2.5 % WT.

Still in this test, the particulars now being: 100 nM TMPRSS2 mutants for 200 seconds followed by dissociation for 400 seconds; RBD on SA biosensors; value read at 200 s; parent: est. 0.50; read off a plot.
On to “human TMPRSS2 ectodomain with S441 and the C379-T447C disulfide bond (wildtype of Figure 2F) (from UniProt O15393) W461A”, for which the response was found to be 0 nm. On the same count and under the same terms, with “human TMPRSS2 ectodomain with S441 and the C379-T447C disulfide bond (wildtype of Figure 2F) (from UniProt O15393) Y414A” the figure was 0.1 nm; with “human TMPRSS2 ectodomain with S441 and the C379-T447C disulfide bond (wildtype of Figure 2F) (from UniProt O15393) Y469A”, 0.36 nm.

“human TMPRSS2 ectodomain with S441 and the C379-T447C disulfide bond (wildtype of Figure 2F) (from UniProt O15393) R470A”: the response came out at 0.14 nm.

The next test has as its target cleaved human TMPRSS2 ectodomain harboring the S441A residue substitution and a C379-T447C disulfide bond (UniProt O15393). The experiment in a line: BLI. Conditions: 100 nM TMPRSS2 S441A for 200 seconds followed by dissociation for 400 seconds; RBD on SA biosensors; value read at 200 s; parent: est. 0.53; read off a plot.
Consider “HKU1 isolate N1 (genotype A) RBD, wildtype, biotinylated (avi tag) (from UniProt Q5MQD0) L510A”, for which the response was 0 nm. The same measure, in the same setting: the figure for “HKU1 isolate N1 (genotype A) RBD, wildtype, biotinylated (avi tag) (from UniProt Q5MQD0) E505A” is 0.36 nm; for “HKU1 isolate N1 (genotype A) RBD, wildtype, biotinylated (avi tag) (from UniProt Q5MQD0) R517A” it is 0.022 nm; for “HKU1 isolate N1 (genotype A) RBD, wildtype, biotinylated (avi tag) (from UniProt Q5MQD0) Y528A” it is 0.11 nm. Turning to “HKU1 isolate N1 (genotype A) RBD, wildtype, biotinylated (avi tag) (from UniProt Q5MQD0) H488A”, the response was determined as 0.18 nm. “HKU1 isolate N1 (genotype A) RBD, wildtype, biotinylated (avi tag) (from UniProt Q5MQD0) V509A”: the response was determined as 0.1 nm. Same read-out and setting: the figure for “HKU1 isolate N1 (genotype A) RBD, wildtype, biotinylated (avi tag) (from UniProt Q5MQD0) W515A” is 0 nm.
